Experimental data as given in the supplement of paper PMC9170038.

Key:
MS2 coat protein [1] = assay: apparent KD of MS2 coat protein, switch ON state; designed switch direction (-1 OFF switch, 1 ON switch): -1; higher = weaker reporter binding; conditions: FMN input: 0 or 200 uM; Eterna round: R93 (includes R88 designs)
Procedure, shortened: (§1)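 Designed RNA switches were transcribed on-chip from Illumina sequencing clusters. SNAP-549-labelled MS2 coat protein was titrated onto them in twofold steps from 0.7 or 1.5 nM to 3 µM in 100 mM Tris-HCl pH 7.5, 80 mM KCl, 4 mM MgCl2, either without or with constant ligand. Apparent KD reflects the per-design median of normalised cluster binding-curve fits.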

MS2 coat protein [2] = assay: apparent KD of MS2 coat protein, switch OFF state (with FMN for OFF switches, without FMN for ON switches); designed switch direction (-1 OFF switch, 1 ON switch): -1; higher = weaker reporter binding; conditions: FMN input: 0 or 200 uM; Eterna round: R93 (includes R88 designs)
Procedure, shortened: as §1

Sequence	apparent KD of MS2 coat protein (MS2 coat protein [1]) [nM]	apparent KD of MS2 coat protein (MS2 coat protein [2]) [nM]
AGGGAACAUGAGGAUCACCCAUGUGAGGAUAUGCUAUGGAAAAUAAAAAUAAAACAUAGCAGAAGGCAUAAAAA [Denovo 10]	52.1	49.5
AGGGAGUAAGGAUAUGAGAAAGAAAAAGAAGGAAAAAAAGAUCAGAAGGUACAUGAGGAUCACCCAUGUAAAAA [milkweed 9]	35.6	26
AGGGAGUGAGGAUAUACGAAAAAAAAAGAAGGAAAAAAAGAGUAGAAGGCACAUGAGGAUCACCCAUGUAAGAA [milkweed 13]	35.8	26
AGUAUGCGAGGAUAUACAUGAGGAUCACCCAUGUGAGAGAUAAGUGUGAGAAAGACAAGUAGAAGGCGCGUACA [JL Lego Mod 27]	106	331
AGUCAUACAGGAUAUACAUGAGGAUCACCCAUGUAUAUCCAAAAAAAAAAAAACUCAUGUAGAAGGGUAUGACA [EX3 206: Super Stable 6]	12	12.4
AGUCAUACAGGAUAUACAUGAGGAUCACCCAUGUUUAUCCUAAAAAAAUAAAAAACAUGUAGAAGGGUAUGACA [EX3 216: Super Stable 16]	12.9	13.7
AGUGAGUCAGGAUAUUCGUGAAGAAUAAAAGAAAUAACAACGAAGAAGGGACAUGAGGAUCACCCAUGUACACA [May 57]	33.6	25
AGUGAGUGAGGAUAUCACUGAACAACAAAACAAAUAACGAGUGAGAAGGCACAUGAGGAUCACCCAUGUACACA [May 67]	23.4	19.2
AGUUGGCGAGGAUAUACAUGAGGAUCACCCAUGUGAAAAAAAAAAGUGAGAAAGAAAAGUAGAAGGCGCUGACA [Mat - Exclusion 3 - Lego mod - D89]	35.1	152
AGUUGGCGAGGAUAUACAUGAGGAUCACCCAUGUGAGAGAAAAAAAGGAAAAAAAAAAGUAGAAGGCGCUGACA [Mat - Exclusion 3 - Lego mod - D44]	43	69.1
AGUUGGCGAGGAUAUACAUGAGGAUCACCCAUGUGAGAGAAAAAAAGGAGAAAAAAAAGUAGAAGGCGCUGACA [Ruth Fulton Benedict]	42.3	123
AGUUGGCGAGGAUAUACAUGAGGAUCACCCAUGUGAGAGAAAAAAGUGAGAAAGAAAAGUAGAAGGCGCUGACA [Norbert Elias]	49.2	202
AGUUGGCGAGGAUAUACAUGAGGAUCACCCAUGUGAGAGAAAAAAGUGAGAAAGAAAAGUAGAAGGCGCUGACA [salish99-ex3-05]	49.2	202
AGUUGGCGAGGAUAUACAUGAGGAUCACCCAUGUGAGAGUAAGAAGUGAGAAAGAGAAGUAGAAGGCGCUAACA [Ruby 54]	48.4	284
AGUUUGUCAGGAUAUGCGUGAAGAAUAAAACAAAUAACAACGCAGAAGGGACAUGAGGAUCACCCAUGUAAACA [May 54]	51.3	58.1
AUAAAACAUGAGGAUCACCCAUGUGAGGAUAUGCGAAACAAAGAAACAAACAAACAAAGCAGAAGGCACAAUAA [Amethyst 7]	24.2	39.2
AUAAAGUCAGGAUAUGUAAAAAUAACGAAAGUUAUAAAUAAACAGAAGGGACAUGAGGAUCACCCAUGUAAAAU [Meechl MS2 Ex4]	47	41.2
AUAGUACAUGAGGAUCACCCAUGUCAGGAUAUCGGAUAUGACAUGAAAAAAAUGUUAAUGAGAAGGGACUAUAA [EX1 Malc#18 Mod 1 - Jieux - Exclusion 1]	52.9	63.6
AUAGUACAUGAGGAUCACCCAUGUCAGGAUAUUCGAAAUGAAAAAAAAAAAAAAUGAAGGAGAAGGGACUAUAA [EX1 Malc#11]	74.7	72
AUGAGAGCAGGAUAUGCAGGUGAGCCGGAAGAAAGAAGAAGACAUGAGGAUCACCCAUGUAGAAGGGCUAGCCC [Madiesxe]	41.9	38.7

Sequence	apparent KD of MS2 coat protein (MS2 coat protein [1]) [nM]	apparent KD of MS2 coat protein (MS2 coat protein [2]) [nM]
CACGUACAUGAGGAUCACCCAUGUUAGGAUAUGCCGGGUAAGAGAAAACUAAAAAUCAGCAGAAGGGACGAAAC [Bilbo Confounded 16 - Jieux - Exclusion 1]	36.7	32.3
CAGUACUGAGGAUAUACAUGAGGAUCACCCAUGUAUCCAAGCUAGGAAACUAGCAAAAGUAGAAGGCAGUACUG [Ex3: 820]	13.2	65.5
CAGUACUGAGGAUAUACAUGAGGAUCACCCAUGUAUCCUAGCUAGGAAACUAGCAAAUGUAGAAGGCAGUACUG [Ex3: 818]	47.6	503
CAGUGACAUGAGGAUCACCCAUGUUAGGAUAUGCGUGUUAGAAAAAAAAAGUUAAUAAGCAGAAGGAACAGUGG [JR_Exc001_Sub311]	40.8	61.6
CGAAUGUAAGGAUAUAGCCACAUUACGAAUAAGUAGUGUGGCUAGAAGGUACAUGAGGAUCACCCAUGUAUGGG [Exclusion 4.5 (AU closing FMN)]	181	51.7
CUCAAGUUAGGAUAUCAAAGAAAAGAAGAGAAAGAAAAGAAUGAGAAGGAACAUGAGGAUCACCCAUGUAAGAA [EteRNA is fun!]	33.4	22.4
CUCAAGUUAGGAUAUCGAAGAAAAGAAGAGAAAGAAAAGAACGAGAAGGAACAUGAGGAUCACCCAUGUAAGAA [EteRNA is fun!]	11.8	21.7
CUCAUGUCAGGAUAUCAGUAGUAAAAAAAAAAAAUUACUACUGAGAAGGGACAUGAGGAUCACCCAUGUCCAUU [EX4 304: Super Stable 4]	53	36.9
CUCAUGUCAGGAUAUGUAGCAUGAUACGAAAGUAUCAUGCUACAGAAGGGACAUGAGGAUCACCCAUGUAAAAA [Ex4: 942]	20.2	33.9
CUCAUGUGAGGAUAUCAGUAGUAAAAAAAUAAAAUUACUACUGAGAAGGCACAUGAGGAUCACCCAUGUGAAAA [EX4 339: Super Stable 39]	27.4	16.1
CUCAUGUGAGGAUAUCAGUAGUAAAAAAAUAAAAUUACUACUGAGAAGGCACAUGAGGAUCACCCAUGUGUCUU [EX4 331: Super Stable 31]	45.8	27.2
CUCUAGUCAGGAUAUCGAAGAAAAGAAGAGAAAGAAAAGAACGAGAAGGGACAUGAGGAUCACCCAUGUAAGAA [EteRNA is fun!]	50	39.2
CUCUUGUCAGGAUAUGGAAGAAAAGAAAAGAAAGAAAAGAACCAGAAGGGACAUGAGGAUCACCCAUGUAAGAA [EteRNA is fun!]	156	37.7
CUCUUGUCAGGAUAUGUAAGAAAAGAAAAGAAAGAAAAGAAACAGAAGGGACAUGAGGAUCACCCAUGUAAGAA [EteRNA is fun!]	78.9	53.1
CUCUUGUGAGGAUAUCAAAGAAAAGAAAAGAAAGAAAAGAAUGAGAAGGCACAUGAGGAUCACCCAUGUAAGAA [EteRNA is fun!]	36.4	59.5
CUUAAGUGAGGAUAUCAGUAGUAAAAAAAUAAAAUUACUACUGAGAAGGCACAUGAGGAUCACCCAUGUUCCAA [EX4 341: Super Stable 41]	29.7	38.1
CUUAUGUGAGGAUAUGUACAGAAAAAACUGGGUGUAACUGUACAGAAGGCACAUGAGGAUCACCCAUGUAAAAA [EX4 387: S S Pseudoknot 12]	36.4	31
GAAAAACAUGAGGAUCACCCAUGUCAGGAUAUCGAAAAAUAAAUAAAAAUAAAAUAAACGAGAAGGGACAAAAG [Mat - Same state - Mayanna Mod - D111]	50.2	61.1
GAAAAAGGAGGAUAUACGUACAUGUCAAAAGACGUGAAGGGACAUGAGGAUCACCCAUGUAGAAGGCUUAAAAG [Mat - Exclusion 2 - JL mod - D95]	59.4	21.4
GAAAAGUCAGGAUAUGCAGAUAAAAAAACGAAAAAAAAUCUGCAGAAGGGACAUGAGGAUCACCCAUGUAAAAG [Mat - Exclusion 4 - Mayanna - D110]	66.3	54.2
